From the supplement of paper PMC6755084

B1: minF1; the commonest letter at each place (parent)
chain: GAGACCGCAACTGAAAAGTTGTTATCAGAAATGGATGGGTTGAATTTCTGCACGTAGAAGCAAAAGGC
B2: minF1; a variant is named by its letters at N, in order (parent)
chain: GAGACCGCAACTGAAAAGTTGTTNNNNAANNNNGGNTNNATTTCTGCACGTAGAAGCAAAAGGC

Variants of: B1
Assay: fraction ligated after 30 min (ligated reads / total reads); higher = more ligase activity
Conditions: with F1*subA RNA substrate (template-directed ligation), 42 °C
Experimental: (§1)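 Chip-synthesised pool of minF1 ligase ribozyme variants (single and double substitutions, single to quadruple deletions, bulge and P2 designed variants) was transcribed with T7 and reacted as a pool with excess substrate F1*subA for 30 min at 42 C in 50 mM EPPS pH 8.5, 25 mM MgCl2. Ligated and unligated RNAs were separated by PAGE, barcoded by RT and deep sequenced; fraction ligated = ligated reads / total reads, relative activity = FL / FL of wild-type minF1 (0.76); sequencing FL correlated with PAGE (R2 = 0.98). Sequences are the DNA template of the ribozyme.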

Row | Variant | fraction ligated
1 | A43G A44G | 0.00367
2 | T36C A44G | 0.00651
3 | T25G A43C | 0.00324
4 | A44C | 0.646
5 | T32G G33T | 0.0125
6 | A24T G37C | 0.00436
7 | T41A | 0.689
8 | G28C G37A | 0.0114
9 | C26A G33T | 0.0279
10 | A30C T32C | 0.00933
11 | A24G A43T | 0.00328
12 | G37A A44G | 0.00429
13 | T32C G33C | 0.0121
14 | C26T A30C | 0.333
15 | C26A T36A | 0.0039
16 | A43C A44C | 0.00194
17 | G42C A43T A44C | 0.000795
18 | T23C A24G | 0.0315
19 | A31G A44G | 0.788
20 | A27G G42C | 0.0187
21 | A29C A35T | 0.012
22 | A29C A35G | 0.189
23 | T25G A29C | 0.0105
24 | T25G G33T | 0.0188
25 | A24C G28T | 0.0617
26 | A29G G33C | 0.709
27 | A30C G33A | 0.773
28 | A35C G42T | 0.00281

Variants of: B2
Assay: as above
Conditions: with F1*subA RNA substrate (template-directed ligation), 42 °C
Experimental: as §1

Row | Variant | fraction ligated
29 | ATCAATATGTG A28G | 0.00686
30 | ATCATATGTGA | 0.00281
31 | ATCATGGAGTT G34T T37G | 0.00293
32 | ATGAGGAGTGA | 0.00532
33 | ATCATGGAGTA G34T | 0.00594
34 | ATCAGGATGTG A28G | 0.0124
35 | ATCGATGGGTG G34A | 0.00444
36 | ATCGATGGGTG G34T | 0.00494
37 | ATCAGATGTGA | 0.00333
38 | ATCAAGGAGTA G34T | 0.00413
39 | ATCGGGTGTGA | 0.00323
40 | ATGATGGAGTG | 0.00409
41 | ATGATGGAGTA | 0.00203
42 | ATCAGGAGTGA | 0.00543
43 | ATCAGGTGTGA | 0.00443
44 | ATCAAATAGTT A28G G34T T37G | 0.00135
45 | ATGAGGAGTGA A29T | 0.0018
46 | ATCATGGAGTG G34T | 0.0119
47 | ATCATGGTTGA | 0.0043
48 | ATCATGTGTGA | 0.00648
49 | ATCAAATGGTT A28G G34A T37G A40G | 0.000551
50 | ATCAGGATTGA A28G | 0.0019
51 | ATCAAAGAGTT A28G G34T T37G A40G | 0.00143
52 | ATCAAAGGTGA A28G | 0.00196

Row | Variant | fraction ligated
53 | ATCAATATGTA A28G | 0.00429
54 | ATCAAATAGTT A28G G34T T37G A40G | 0.0013
55 | ATCAAATGGTT A28G G35T T37G A40G | 0.00187
56 | ATCAATGAGTG A28G G34T | 0.00581
57 | ATCAATGGGTT G34A G35T T37G | 0.00168
58 | ATCAAATAGTA A28G | 0.00232
59 | ATCAGGATTGA A28G A29T | 0.00153
60 | ATGATGGAGTA G34T | 0.00469
61 | ATCATGGTGTA | 0.00395
62 | ATCATGGTGTG | 0.00925
63 | ATCGAGATTGA | 0.00372
64 | ATCGTGGAGTT G34T T37G A40G | 0.00133
65 | ATCGATATGTG | 0.00524
66 | ATCGATATGTA | 0.0031
67 | ATCAGGTGTGA A29T | 0.00874
68 | ATCGAGGTGTG | 0.00858
69 | ATCGAGGTGTA | 0.00324
70 | ATCAAGATTGA | 0.00249
71 | ATGATGGAGTT G34T T37G | 0.00184
72 | ATGATGGTGTA | 0.00485
73 | ATGATGGTGTG | 0.00658
74 | ATCATGAGTGA A28G | 0.00204
75 | ATCAAAGGGTT A28G G34A G35T T37G | 0.00185
76 | ATCATGATTGA | 0.00257

Row | Variant | fraction ligated
77 | ATCAGGATGTA A28G | 0.00247
78 | ATGATGATTGA | 0.00379
79 | ATCATGGAGTG | 0.00597
80 | ATCATGGAGTA | 0.00426
81 | ATCGTGATGTG | 0.0261
82 | ATCGTGATGTA | 0.00285
83 | ATCGTGGAGTA | 0.00217
84 | ATCGTGGAGTG | 0.00496
85 | ATCGTGATTGA | 0.00326
86 | ATGATGTGTGA | 0.0027
87 | ATCAATGTTGA A28G | 0.0018
88 | ATCAAAGATGA A28G | 0.00211
89 | ATCGATGTTGA | 0.00239
90 | ATCAAATGGGT A28G G35A T37G A40T | 0.00114
91 | ATCAAATGGTT A28G G34T T37G A40G | 0.000795
92 | ATCATGGAGTA A28G G34T | 0.00586
93 | ATCAATGGGTT G34A T37G A40G | 0.00153
94 | ATCAAATGGTT A28G G34T T37G | 0.000947
95 | ATGATGGGTGA | 0
96 | ATCGAGGAGTA G34T | 0.00121
97 | ATCAAATGGTT A28G G35A T37G | 0.00104
98 | ATCAAATGGGT A28G G35T T37G A40T | 0.00169
99 | ATCAAATGGTT A28G G35A T37G A40G | 0.00174
100 | ATCATGGAGTG A28G G34T | 0.0152

Row | Variant | fraction ligated
101 | ATGAGGATTGA | 0.00566
102 | ATCAATGGGTT G34A T37G | 0.001
103 | ATCGTGGTTGA | 0.00112
104 | ATCATGATGTA | 0.00345
105 | ATCATGATGTG | 0.0143
106 | ATCAATGATGA | 0.00478
107 | ATCATGGAGTT A28G G34T T37G | 0.00165
108 | ATCGAGGAGTT G34T T37G | 0.00239
109 | ATCAGGATGTG | 0.00943
110 | ATCAGGATGTA | 0.00297
111 | ATGAGATGTGA A29G | 0.00416
112 | ATGAGATGTGA A29T | 0.00278
113 | ATCAAGGAGTA A28G G34T | 0.00153
114 | ATCAATGGGTG A28G | 0.00414
115 | ATCATGATGTA A28G | 0.00257
116 | ATCGATGGGTT G34A T37G A40G | 0.00135
117 | ATCATGGATGA A28G | 0.00362
118 | ATCGATAGTGA | 0.00296
119 | ATCGTGGTGTA | 0.00478
120 | ATCGTGGTGTG | 0.00802
121 | ATCGAGGAGTG G34T | 0.00393
122 | ATCAAATGGTT A28G G34A T37G | 0.0014
123 | ATCGATGTGTA | 0.00271
124 | ATCGATGTGTG | 0.00543

Row | Variant | fraction ligated
125 | ATGAGGATTGA A29T | 0.00582
126 | ATCAATAGTGA | 0.00321
127 | ATCAATATGTG | 0.00446
128 | ATCAATATGTA | 0.00288
129 | ATCAAGAGTGA A28G | 0.00247
130 | ATCGGGATGTA A29T | 0.00281
131 | ATCAGGATTGA | 0.00379
132 | ATCAATGGGTG A28G G34A | 0.00717
133 | ATCAATGGGTG A28G G34T | 0.00456
134 | ATGAGGATGTA A29T | 0.00295
135 | ATCATGATGTG A28G | 0.0138
136 | ATCGGATGTGA A28T A29G | 0.012
137 | ATCAAATTGTG A28G | 0.00512
138 | ATCAATATTGA | 0.00211
139 | ATCGATGAGTG | 0.00474
140 | ATCGATGAGTA | 0.00221
141 | ATCAAATGGTG A28G | 0.00534
142 | ATCGTGGAGTT G34T T37G | 0.00145
143 | ATCAAATATGA A28G | 0.00291
144 | ATCAAGATGTA A28G | 0.00207
145 | ATCAAGGAGTT A28G G34T T37G A40G | 0.000656
146 | ATCGTGGATGA | 0.00177
147 | ATCGATGGGTT G34A G35T T37G A40G | 0.000298
148 | ATCAAGAGTGA | 0.0037

Row | Variant | fraction ligated
149 | ATCAAATAGTG A28G G34T | 0.0037
150 | ATCAAGGGTGA | 0.00247
151 | ATCAAAGGGTG A28G | 0.0051
152 | ATCGATGGGTT G34A T37G | 0.00243
153 | ATCAAGGATGA | 0.000429
154 | ATCAATGGGTT G34T T37G A40G | 0.00223
155 | ATCAGATGTGA A28T A29G | 0.0131
156 | ATCAAGGTTGA A28G | 0.00202
157 | ATGAGGTGTGA | 0.00168
158 | ATCAAAGTGTA A28G | 0.00412
159 | ATCAATATTGA A28G | 0.00433
160 | ATCATGGTTGA A28G | 0.00132
161 | ATCGTGTGTGA | 0.00325
162 | ATCAATGGGTT G34A G35T T37G A40G | 0.00189
163 | ATCAAGTGTGA A28G | 0.00275
164 | ATCAATTGTGA | 0.00256
165 | ATCAAGGTGTA A28G | 0.00466
166 | ATCAATGGGTG | 0.00492
167 | ATCAATGGGTA | 0.00273
